Experimental data from publication PMC4666351, “A novel transcriptional regulator of L-arabinose utilization in human gut bacteria”.
Residue numbers refer to the chain shown, from its start.

T1: BtAraR F49Q (Bacteroides thetaiotaomicron (VPI-548 …, UniProt Q8AAV8 1-225, F49Q))
T1 sequence: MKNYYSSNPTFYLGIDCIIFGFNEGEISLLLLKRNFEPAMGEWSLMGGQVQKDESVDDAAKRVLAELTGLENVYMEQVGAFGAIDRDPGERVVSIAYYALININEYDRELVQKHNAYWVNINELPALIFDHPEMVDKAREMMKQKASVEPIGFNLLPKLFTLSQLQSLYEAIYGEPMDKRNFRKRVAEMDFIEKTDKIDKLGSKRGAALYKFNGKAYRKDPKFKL

T2: BtAraR R34N (Bacteroides thetaiotaomicron (VPI-548 …, UniProt Q8AAV8 1-225, R34N))
T2 sequence: T1 sequence with R34N, Q49F

T3: BtAraR V92D (Bacteroides thetaiotaomicron (VPI-548 …, UniProt Q8AAV8 1-225, V92D))
T3 sequence: T1 sequence with Q49F, V92D

B1: BT0356 (araM) promoter 65-bp (dsDNA)
DNA 1: CCCCCATATAAGAGTGTATTTGATACACCAAACAAAAGTGTTACTTTTACACCCAAAATACCCCC
DNA 2: GGGGGTATTTTGGGTGTAAAAGTAACACTTTTGTTTGGTGTATCAAATACACTCTTATATGGGGG

Tests used:
[1] = target: BtAraR (BT0354), NrtR family transcription factor of Bacteroides thetaiotaomicron (B. thetaiotaomicron); test: crystal structure; four crystal forms of SeMet BtAraR: apo-1 (R3), apo-2 (I2_(1)3), complex with a 27-bp DNA duplex (P23), complex with L-arabinose (P2_(1)); data at 100 K
BtAraR F49Q = target: T1, BtAraR F49Q; test: EMSA; 0.5 mM L-arabinose, 1 uM protein; EMSA: 20 mM Tris-HCl pH 8.0, 150 mM KCl, 5 mM MgCl2, 1 mM DTT, 0.05% NP-40, 2.5% glycerol, 37 C, 30 min; DNA 0.2 nM (0.16 nM in Fig S4), protein 0.25-1 uM; settings: protein: recombinant; chain copies: 2; label: 5'-biotin on one strand; blunt
BtAraR R34N = target: T2, BtAraR R34N; test: as above; settings: protein: recombinant; chain copies: 2; label: 5'-biotin on one strand; blunt
BtAraR V92D = target: T3, BtAraR V92D; test: EMSA; 1 uM protein; EMSA: 20 mM Tris-HCl pH 8.0, 150 mM KCl, 5 mM MgCl2, 1 mM DTT, 0.05% NP-40, 2.5% glycerol, 37 C, 30 min; DNA 0.2 nM (0.16 nM in Fig S4), protein 0.25-1 uM; settings: protein: recombinant; label: 5'-biotin on one strand; blunt

Row | Molecule | stoichiometry N [1] | binding result (BtAraR F49Q) | binding result (BtAraR R34N) | binding result (BtAraR V92D)
1 | BtAraR (BT0354), NrtR family transcription factor of Bacteroides thetaiotaomicron (natural protein) | 2 |  |  | 
2 | B1 |  | binds | binds | no binding
